The values that follow come from US7919292B2, “Producing hydrogen by heterologous expression of a type II NAD (P)H dehydrogenase in Chlamydomonas” (Commissariat a l'Energie Atomique, priority 2004, dated 2011).

The target in series [1] is Agrobacterium tumefaciens NDH-II (Agrobacterium fabrum (Agrobacterium tumefaciens), UniProt Q7CY19). In words: biochemical.
Protocol: The activity of the Agrobacterium tumefaciens NDH-II was assayed using membranes from an E. coli strain deficient in NDH-I and NDH-II (ndh::tet; nuoB::nptl).
The cells were then collected by centrifugation (15 min, 3200×g) and washed twice with 10 ml of solution containing 200 mM Tris-Cl, pH 8, 2.5 mM EDTA and 0.2 mM PMSF. They were then ruptured by passing them twice through a French press at the pressure of 16 000 psi.
The membrane fraction was recovered by centrifugation (30 min, 48 500×g) and resuspended in 200 μl of analysis buffer (50 mM of phosphate buffer, pH 7.5, and 150 mM NaCl).
The O2 consumption of the E. coli ANN0222 membranes was measured by means of a Clark electrode (DW2/2, Hansatech, King's Lynn, England). After addition of the purified enzyme, this method made it possible to determine its specific activity. […]
In order to measure only the membrane-linked respiratory oxidase activity, catalase (1000 U/ml) and superoxide dismutase (SOD) (500 U/ml) were added to the reaction mixture. […] The inhibition kinetics were determined in the presence of 200 μM of NADH or of 2 mM of NADPH.
In series [2] the test system is E. coli ANN0222 membranes. Put plainly: Enzymatic activity of purified NDH-II on bacterial membranes (O2 consumption, Clark electrode). Particulars: 25° C.; for Km: physiological pH. The format is biochemical. As for the experimental part: In the next experiment, the capacity of this enzyme to transport electrons to the respiratory chain of E. coli was determined.

Series [3] has as its system Chlamydomonas thylakoids. Put plainly: Photo-induced DNP-INT-sensitive oxygen uptake of Chlamydomonas thylakoids (electron transport from NAD(P)H to the photosynthetic chain). The format is biochemical, Chlamydomonas reinhardtii. How it is done:
(§1) A culture of 200 ml of Chlamydomonas reinhardtii (wild-type 137c) was sampled in the exponential growth phase (approximately 5×10^6 cells·ml^−1), and then centrifuged (5 min, 1000×g). The cells were washed in 35 mM HEPES-NaOH buffer (pH 7.2), resuspended in 10 ml of lysis buffer (50 mM tricine-NaOH, pH 8, 10 mM NaCl, 5 mM MgCl2, 1% BSA, 1 mM benzamidine and 1 mM PMSF) and stored in the cold and in the dark for the following steps.
The suspension was passed through a French press twice, at 2000 psi. The lysate was first centrifuged (5 min, 4° C., 500×g) in order to remove the unlysed cells, and the thylakoid membranes were then pelleted at 10 000×g for 10 min and resuspended in 250 to 500 μl of analysis buffer (50 mM tricine-NaOH, pH 7.2, 10 mM NaCl and 5 mM MgCl2).
In order to quantify this effect of the Agrobacterium NDH-II on the electron flow from NAD(P)H to the acceptors of PSI, oxygen consumption measurements were carried out in the presence of methyl viologen (an acceptor of PSI), of DCMU (an inhibitor of PSII) and of an NADH (200 μM) or NADPH (2 mM) electron donor.
The Chlamydomonas thylakoids (50 μl, corresponding to 85 μg·ml^−1 of chlorophyll) are placed in a Clark electrode containing 900 μl of analysis buffer (50 mM tricine-NaOH, pH 7.2, 10 mM NaCl and 5 mM MgCl2, 25 μM DCMU, 50 μM methyl viologen, SOD (500 U·ml^−1), catalase (1000 U·ml^−1), 4 μM of myxothiazol and 800 μM of SHAM (salicylhydroxamic acid). The latter two compounds are added in order to inhibit respiratory O2 uptake.
Under these conditions, the fraction of the photo-induced oxygen uptake sensitive to DNP-INT (2-iodo-6-isopropyl-3-methyl-2′,4,4′-trinitrodiphenyl ether; 10 μM), an inhibitor of cytochrome b6f, is proportional to the electron transport between the NAD(P)H and the photosynthetic chain.

The test system of series [4] is Chlamydomonas reinhardtii plastoquinones. In words: Plastoquinone reduction measured by chlorophyll fluorescence on thylakoid membranes. The format is biochemical. As to conditions: NDH-II 1.5 μg·ml^−1, 200 μM NADH, anaerobic. How it is done:
The plastoquinone-reducing activity by the Agrobacterium NDH-II was analyzed by measuring chlorophyll fluorescence. In the presence of a weak nonactinic illumination, the measurement of chlorophyll fluorescence provides an indication of the plastoquinone redox state.
as §1
The suspension was passed through a French press twice, at 2000 psi. […]
The photosystem II fluorescence was measured using a modulated light fluorimeter (PAM 101-103, Walz, Effeltrich, Germany).
A nonactinic modulated light (650 nm, 1.6 kHz) was used to determine the level of chlorophyll fluorescence F0. The maximum level of the chlorophyll fluorescence Fm was measured under a saturating flash of 1 second (approximately 1000 μmol photons·m^−2·s^−1). […]

In series [5] the test system is E. coli ANN0222 membranes. Put plainly: Membrane NADH dehydrogenase activity of E. coli ANN0222 expressing Agtundh2 (O2 uptake). The class given is biochemical. As for the experimental part: Two batches of E. coli ANN.0222 membrane fractions were prepared, from a culture of the control strain on LB medium and from a culture of the strain having incorporated the plasmid pSDN2Ag6H, cultured on LB medium in the presence of 0.1 mM IPTG. The cultures were carried out until an optical density of 1 at 600 nm was obtained. […] The cells were then ruptured by passing them through a French press twice, at 16 000 psi. The membrane fraction, collected by centrifugation (30 min, 4° C., 48,500×g), was taken up in 200 μl of buffer B (50 mM phosphate buffer, pH 7.5 and 150 mM NaCl).
The results are illustrated by FIG. 10B, which represents the O2 uptake, in the presence of NADH, of E. coli ANN0222 membranes prepared from the reference strain (control) and from the strain expressing Agtundh2.
To determine the catalytic efficiency of Agtundh2 expressed in E. coli, the specific activity was estimated from the amounts determined by Western blotting.
On the basis of the relative intensities of the signals obtained for the purified Agtundh2 protein and for the membrane fractions, the amount of Agtundh2 protein in the experiments illustrated by FIG. 10B was estimated at 0.6 μg protein. The maximum O2 uptakes under these conditions are thus estimated at 13.2/0.6=22 nmol O2 min^−1·μg^−1 protein, i.e. 44 nmol NADH min^−1·μg^−1 protein.

The test system of series [6] is E. coli strain ANN.0222. Put plainly: Complementation-growth test of NDH-deficient E. coli. The format is cell-based. Particulars: M9 + mannitol. As for the experimental part: The functionality of the Agtundh2 protein in vivo in a heterologous host was tested by determining its capacity to restore the growth of a mutant E. coli strain, ANN.0222, deficient in NDH-1 and in NDH-2. This strain grows normally on LB medium, but is incapable of growing on minimum medium M9 supplemented with mannitol as the sole carbon source.
The E. coli strain ANN.0222 was chemically transformed (CaCl2) with the plasmid pSDN2Ag6H. The transformants were selected on LB agar medium (supplemented with 1% tryptone, 0.5% of yeast extract and 0.5% NaCl, pH 7) containing ampicillin (100 μg/ml). The transformants and the strain of origin were cultured until the middle of the exponential phase at 37° C. in liquid LB medium containing ampicillin (100 μg/ml). The cells were rinsed with sterile M9 medium, supplemented with mannitol as the sole carbon source (1× M9 salts, 2×10^−3 M MgSO4, 10^−4 M CaCl2, 0.4% mannitol). The cells were then diluted in M9 medium/mannitol and inoculated on a solid M9/mannitol/agar medium containing ampicillin and various concentrations of IPTG. The Petri dishes were incubated at 37° C. for 2 days. As a control, the same cells were inoculated in parallel on dishes containing LB agar medium containing ampicillin and various concentrations of IPTG, and then incubated at 37° C. overnight. […]

The nature of series [7]: Activity of wild-type and E201Q modified protein with NADH and NADPH. The class given is biochemical. Particulars: FIG. 12. How it is done:
The affinity of the modified protein for NADH and NADPH was determined.
The results are illustrated in FIG. 12.

Where two headings read alike, the source gives them in different places.

As usually defined, the IC50 is the midpoint of a concentration-inhibition curve. In turn, `c1ccc2c(c1)[I+]c1ccccc1-2` [DPI, diphenylene iodonium] returned an IC50 in series [1] of 10 µM.

B1: Agrobacterium NDH-II: type II NAD(P)H dehydrogenase from Agrobacterium tumefaciens, SEQ ID NO: 2, purified with 6His tag (protein, listed as Agrobacterium tumefaciens)
chain: MQEHHVVVVGGGFGGLQLVHGLEGAPVRITLIDRRNHHLFQPLLYQVATTALATSEIAWPIRHLYRDRKEVTTLLAEVTGVDRAARTVQLNSGQVIGFDTLVLATGARHAYFGHDEWERSAPGLKTLEDATTIRRRLLLAFERAELATSEEERQALLTFVIIGAGPTGVEMAGMIAELAHRALPAEFRNVDTRKTRVLLVEAGPRVLPVFTEDLSTYAKEALEKLGVEVLLGTPVTACTDEGVTVGETYYPCRTVVWAAGVQASPAAKWLNAAGDRAGRVIVGPQLHLEDDADIFVIGDTAAVNQENGKPVPGIAPAAKQQGAYVAKVIKARLEGKPIPAPFRYSHQGNLATIGKRAAVIDFGRFKLKGVLAWWIWGLAHIYFLIGTRSRLAVAWSWLWIYLSGQHSARLITQKETLKDEA
modifications: 6His tag
One may read the Km as the concentration of substrate that gives half-maximal velocity. As for B1, the Michaelis constant (Km) in series [2] (read-out: Km for NADH) was determined as 10 µM; in series [2] (read-out: Km for NADPH) it was 50 µM. In series [2] (purified enzyme plus E. coli ANN0222 membranes, pH 7.5), the “maximum activity (Vmax)” value is on record as 5 μmol O2·min^−1·mg^−1 protein. Also, the “electron transport, NADH as donor” value in series [3] (1.5 μg purified NDH-II added, NADH 200 μM, without enzyme 21) is on record as 67 nmol·min^−1·mg^−1 chlorophyll. Also, the “electron transport, NADPH as donor” value in series [3] (1.5 μg purified NDH-II added, NADPH 2 mM, without enzyme 20) is reported as 45 nmol·min^−1·mg^−1 chlorophyll. For the same molecule, the “stimulation factor of electron transport, NADH” value in series [3] (NADH to thylakoid plastoquinones) is listed as “approximately 3”. Moreover, the “stimulation factor of electron transport, NADPH” value in series [3] (NADPH to thylakoid plastoquinones) was “approximately 2”. In addition, the “increase in chlorophyll fluorescence (plastoquinone reduction) versus natural enzyme alone” value in series [4] is “more rapid and more intense”. In series [5] (Agtundh2 expressed in E. coli membranes), the “specific activity as NADH” value is reported as 44 nmol NADH min^−1·μg^−1 protein. Besides, in series [5] (Agtundh2 expressed in E. coli membranes, protein amount estimated by Western blotting at 0.6 μg), the “maximum O2 uptake (specific activity)” value is recorded as 22 nmol O2 min^−1·μg^−1 protein. The “O2 uptake of membranes on addition of NADH” value in series [5] (strain transformed with pSDN2Ag6H, 0.1 mM IPTG, control strain none detected) is listed as “considerable O2 uptake”. Besides, the entries for the “growth on minimal medium” value in series [6] (absence of IPTG) and in series [6] (induction with 0.1 mM IPTG) were “partial complementation” and “restored”, respectively. Further, the “activity with 200 μM NADH compared with 200 μM NADPH” value in series [7] is reported as “clearly greater activity with 200 μM NADH”.
